# Where two headings read alike, the source gives them in different places. Non-standard residues stand in square brackets, D forms with d. Primed or numbered codes have the meaning given here. No end group written: not given here. APC = aminopyrrolidine carboxylic acid (2-aminopyrrolidine-4-carboxylic acid); ACPC″ = 2-aminocyclopentane carboxylic acid (X); ACPC = 2-aminocyclopentane carboxylic acid; β3hS = N[C@@H](CO)CC(=O)O; Aib = CC(C)(N)C(=O)O
# T1: delNT PTHR1 (human, UniProt Q03431 27-593)
# T1 sequence (looked up): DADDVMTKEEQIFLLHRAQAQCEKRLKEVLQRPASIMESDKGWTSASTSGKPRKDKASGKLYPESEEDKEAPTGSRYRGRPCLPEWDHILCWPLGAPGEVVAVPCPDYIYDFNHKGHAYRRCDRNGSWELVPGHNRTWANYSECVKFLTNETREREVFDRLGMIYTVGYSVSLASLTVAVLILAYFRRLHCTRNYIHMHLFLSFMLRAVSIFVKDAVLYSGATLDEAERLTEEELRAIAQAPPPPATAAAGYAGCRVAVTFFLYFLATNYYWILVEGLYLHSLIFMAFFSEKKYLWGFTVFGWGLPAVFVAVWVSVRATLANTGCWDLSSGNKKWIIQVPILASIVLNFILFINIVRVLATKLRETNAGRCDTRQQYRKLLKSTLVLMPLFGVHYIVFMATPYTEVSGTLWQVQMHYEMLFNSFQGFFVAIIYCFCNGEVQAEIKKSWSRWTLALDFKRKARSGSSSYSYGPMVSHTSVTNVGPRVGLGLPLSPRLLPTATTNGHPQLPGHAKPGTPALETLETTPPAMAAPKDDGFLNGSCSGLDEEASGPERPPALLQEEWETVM
# T2: human parathyroid hormone receptor 1, wild-type (hPTHR-1) (human, UniProt Q03431 27-593)
# T2 sequence (looked up): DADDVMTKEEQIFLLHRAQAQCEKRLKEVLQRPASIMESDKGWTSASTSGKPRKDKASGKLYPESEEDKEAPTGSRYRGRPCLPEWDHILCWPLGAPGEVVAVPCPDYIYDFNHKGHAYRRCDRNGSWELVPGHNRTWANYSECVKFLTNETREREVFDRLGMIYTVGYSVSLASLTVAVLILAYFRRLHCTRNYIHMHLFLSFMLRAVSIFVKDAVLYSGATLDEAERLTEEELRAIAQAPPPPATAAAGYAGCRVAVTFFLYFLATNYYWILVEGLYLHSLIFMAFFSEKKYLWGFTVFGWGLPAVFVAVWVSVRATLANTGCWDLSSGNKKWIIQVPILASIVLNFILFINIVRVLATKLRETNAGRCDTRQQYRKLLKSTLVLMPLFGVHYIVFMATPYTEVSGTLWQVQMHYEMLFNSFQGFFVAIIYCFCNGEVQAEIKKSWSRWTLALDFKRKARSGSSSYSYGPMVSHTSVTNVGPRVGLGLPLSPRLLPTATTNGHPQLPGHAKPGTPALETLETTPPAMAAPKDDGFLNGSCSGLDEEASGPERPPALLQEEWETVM
# T3: PTHR-1 (species and cells not stated for the assay) (Homo sapiens (Human), UniProt Q03431 27-593)
# T3 sequence: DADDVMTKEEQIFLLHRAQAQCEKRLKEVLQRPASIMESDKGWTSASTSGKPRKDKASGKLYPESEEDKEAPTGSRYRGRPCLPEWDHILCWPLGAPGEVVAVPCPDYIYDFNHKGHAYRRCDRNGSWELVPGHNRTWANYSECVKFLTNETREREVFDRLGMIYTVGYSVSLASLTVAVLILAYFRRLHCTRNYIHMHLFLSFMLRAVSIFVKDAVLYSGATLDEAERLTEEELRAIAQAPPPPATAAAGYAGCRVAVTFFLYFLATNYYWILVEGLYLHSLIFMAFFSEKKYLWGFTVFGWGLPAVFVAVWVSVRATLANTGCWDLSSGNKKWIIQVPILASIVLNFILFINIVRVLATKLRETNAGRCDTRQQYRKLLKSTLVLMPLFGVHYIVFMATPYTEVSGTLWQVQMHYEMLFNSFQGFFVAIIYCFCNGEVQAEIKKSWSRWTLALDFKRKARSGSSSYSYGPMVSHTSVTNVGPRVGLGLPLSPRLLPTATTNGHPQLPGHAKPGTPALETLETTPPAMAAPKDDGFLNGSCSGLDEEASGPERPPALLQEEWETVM
# How the values were obtained:
# [1] = molecular target: T1, delNT PTHR1; experiment: cell-based or functional assay
# [2] = molecular target: T2, human parathyroid hormone receptor 1, …; experiment: cell-based or functional assay
# [3] = molecular target: T3, PTHR-1 (species and cells not stated …); experiment: cell-based or functional assay
# [4] = molecular target: T2, human parathyroid hormone receptor 1, …; experiment: R0 binding, GP2.3 membranes (human PTHR-1); tracer not stated here
# [5] = molecular target: T3, PTHR-1 (species and cells not stated …); experiment: cell-based or functional assay; remark: listed apart in the source
# [6] = molecular target: T3, PTHR-1 (species and cells not stated …); experiment: cell-based or functional assay; remark: listed apart in the source
# [7] = molecular target: parathyroid hormone receptor-2 (PTHR-2); experiment: cell-based or functional assay
# Sequence of parathyroid hormone receptor-2 (PTHR-2) (P49190 whole entry): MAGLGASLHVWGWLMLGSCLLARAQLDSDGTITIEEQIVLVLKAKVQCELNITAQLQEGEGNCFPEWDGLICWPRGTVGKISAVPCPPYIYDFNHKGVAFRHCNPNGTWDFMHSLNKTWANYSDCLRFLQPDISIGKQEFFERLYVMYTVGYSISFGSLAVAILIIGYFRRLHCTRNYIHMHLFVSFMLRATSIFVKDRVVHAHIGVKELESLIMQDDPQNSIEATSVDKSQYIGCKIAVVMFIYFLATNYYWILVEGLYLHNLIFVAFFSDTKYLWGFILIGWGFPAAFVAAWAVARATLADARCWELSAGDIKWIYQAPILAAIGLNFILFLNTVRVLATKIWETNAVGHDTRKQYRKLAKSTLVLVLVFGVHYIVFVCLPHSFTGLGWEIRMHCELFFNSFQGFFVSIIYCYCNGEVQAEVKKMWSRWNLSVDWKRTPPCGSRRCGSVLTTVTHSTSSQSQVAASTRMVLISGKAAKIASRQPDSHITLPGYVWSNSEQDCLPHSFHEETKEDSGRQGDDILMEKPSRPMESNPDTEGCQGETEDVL
Fold PTH [1],cAMP EC50 [1],Fold PTH [2],cAMP EC50 [2],cAMP response PTH1R/PTH2R [3],IC50 [4],cAMP EC50 [5],Fold PTH [6],cAMP EC50 [6],cAMP response PTH2R/PTH1R [7],Binder
74 fold,4.6 µM,1.3 fold,0.12 nM,44 ratio,–,–,–,–,–,SVSEIQ[ACPC]MHNLGKHLNSMERVEWLRKKLQDVHNF-NH2 [ACPC(7) PTH(1-34)]
–,–,–,–,–,1.54 nM,0.21 nM,–,–,–,"[β3hS]V[Aib]EIQ[ACPC″]MHNLGK[ACPC″]LNS[ACPC″]ERV[APC]WLR[APC]KLQ[ACPC″]VHN[ACPC″]-NH2 [FcycD6_β3Ser(1), Aib(3), ACPC (7)]"
–,–,–,–,–,–,25.9 nM,234 fold,19.1 nM,45 ratio,"[ACPC″]VSE[ACPC″]Q[ACPC″]MHNLGK[ACPC″]LNS[ACPC″]ERV[APC]WLR[APC]KLQ[ACPC″]VHN[ACPC″]-NH2 [FcycD6_ACPC(1,5,7)]"
–,–,–,–,–,–,–,36.7 fold,2.99 nM,11 ratio,"[ACPC]VSE[ACPC]Q[ACPC]MHNLGKHLNSMERVEWLRKKLQDVHNF-NH2 [ACPC(1,5,7)]"

# Source: US20140378382A1 (WISCONSIN ALUMNI RESEARCH FOUNDATION, published 2014)
